{"source": "paper PMC11283454", "about": "(Nature Communications, 2024)", "origin": "cited, not measured here", "molecules": {"B1": {"name": "scATE1: Saccharomyces cerevisiae ATE1 (protein, UniProt P16639 1-503, looked up)", "Arginyl-tRNA--protein …": "MSDRFVIWAPSMHNEPAAKCGYCHGNKGGNMDQLFALDSWAHRYMNKMDVVKIENCTIGSFVEHMDVATYDRMCNMGFRRSGKFLYKVDPLRNCCRLYTIRTAPQELNMTKELKKCISRFATRITSEDYCPAAVASSDFVGKIVNAEMNSKTFYTRFEPALYSEEKYHLFVKYQEKVHQDYNNSPKSFKRFLCDTPFGPEAVLGTQESWEQLNNWQRMKPGEKLKHMGPVHECYYYEGKLIAITVSDILPSGISSVYFIWDPDYSKWSLGKLSALRDLAIIQRTNLQYYYLGYYIEDCPKMNYKANYGAEVLDVCHSKYIPLKPIQDMISRGKLFVIGEEETKVTKELYLVDSETGRGEGFPTDNVVKYKNIAEEIYGVGGCAFKSANESALELKELYGIPYEEEDLDTIYHLKEHNGHAPNGIPNVVPGLLPLWELLDIMQSGKITDLEGRLFLFEIETEGIRPLINFYSEPPNVKKRICDVIRLFGFETCMKAVILYSEQM"}}, "data": [{"molecule": "B1", "values": [{"measurement": "Tm of scATE1", "value": "~ 46 °C"}]}]}
